Consider four molecules from paper PMC10369947.

Residue numbers refer to the chain shown, from its start. Like-named read-outs stand apart in the source and are kept apart here.

Common to all, as to assay: smFRET
The target in data set [1] is T1, GAF-DBD (GAF-ZnF, Cy3) (Drosophila melanogaster, UniProt Q08605).
T1 sequence: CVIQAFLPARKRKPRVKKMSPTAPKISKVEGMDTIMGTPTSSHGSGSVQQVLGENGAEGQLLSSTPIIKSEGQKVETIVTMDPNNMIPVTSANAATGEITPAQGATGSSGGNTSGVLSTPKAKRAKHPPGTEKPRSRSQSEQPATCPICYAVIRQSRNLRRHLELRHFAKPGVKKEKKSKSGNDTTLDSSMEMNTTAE

For data set [2], the target named is T1, GAF-DBD (GAF-ZnF, Cy3). This is another data set of the same source.
Data set [3] concerns the target T1, GAF-DBD (GAF-ZnF, Cy3). The source holds these as a separate data set.
For data set [4], the target named is T1, GAF-DBD (GAF-ZnF, Cy3). The source holds these as a separate data set.

B1: Cognate-Motif Cy5-DNA (90 bp) (dsDNA)
DNA 1: GTTTTGTGAGTACGCGCTGTTGTACTATTGTTAACCCACAAGGTCGCACAGTAAACGGCACACTGTACGTGTTGCTTCGAGAGAGCGCGC
DNA 2: GCGCGCTCTCTCGAAGCAACACGTACAGTGTGCCGTTTACTGTGCGACCTTGTGGGTTAACAATAGTACAACAGCGCGTACTCACAAAAC
modifications: internal backbone Cy5 in strand 2
As for B1, in data set [1], the binding result was “binds”.

B2: hsp70 tandem Cy5/Cy7 DNA (187 bp) (dsDNA)
DNA 1: TCATTTGTTTGGCAGAAAGAAAACTCTCAAAATTTCGTTGGCCGTTATAGCATATTCGTTTTGTGAGAGAGGGAGAGAGTACTATTGTTAACCCACAAGGTCGCACAGTAAACGGCACACTGTACGTGTTGCTTCGAGAGAGCGCGCCACCTGGTGTCGCGAAAAGAGCGCCGGAGTATAAATAGAG
DNA 2: CTCTATTTATACTCCGGCGCTCTTTTCGCGACACCAGGTGGCGCGCTCTCTCGAAGCAACACGTACAGTGTGCCGTTTACTGTGCGACCTTGTGGGTTAACAATAGTACTCTCTCCCTCTCTCACAAAACGAATATGCTATAACGGCCAACGAAATTTTGAGAGTTTTCTTTCTGCCAAACAAATGA
modifications: amino-C6-T coupled dyes
On to B2, for which the binding result in data set [2] was “binds”.

B3: hsp70 Site 2 Only Cy5/Cy7 DNA (dsDNA)
DNA 1: B2 DNA 1 with G65C, A66C, G67A, A68G, G69C, G71C, G72T, A74T, G75A, G77T
DNA 2: B2 DNA 2 with C111A, C113T, T114A, C116A, C117G, C119G, T120C, C121T, T122G, C123G
modifications: amino-C6-T coupled dyes
For B3, the binding result in data set [3] is “binds”.

B4: hsp70 flipped Cy5/Cy7 DNA (187 bp) (dsDNA)
DNA 1: TCATTTGTTTGGCAGAAAGAAAACTCTCAAAATTTCGTTGGCCGTTATAGCATATTCGTTTTGTGACTCTCCCTCTCTGTACTATTGTTAACCCACAAGGTCGCACAGTAAACGGCACACTGTACGTGTTGCTTCGAGAGAGCGCGCCACCTGGTGTCGCGAAAAGAGCGCCGGAGTATAAATAGAG
DNA 2: CTCTATTTATACTCCGGCGCTCTTTTCGCGACACCAGGTGGCGCGCTCTCTCGAAGCAACACGTACAGTGTGCCGTTTACTGTGCGACCTTGTGGGTTAACAATAGTACAGAGAGGGAGAGTCACAAAACGAATATGCTATAACGGCCAACGAAATTTTGAGAGTTTTCTTTCTGCCAAACAAATGA
modifications: amino-C6-T coupled dyes
In the case of B4, in data set [4], the binding result was “binds”.
